Laboratory results: the RNAGym collection of RNA variant scans (doi:10.1073/pnas.2313332121)
Variants at the floor of the assay were thinned out.

B1: TPR 5TU (parent)
chain: GGAUCUUCUCGAUCUAACAAAAAAGACAAAUCUGCCACAAAGCUUGAGAGCAUCUUCGGAUGCAGAGGCGGCAGCCUUCGGUGGCGCGAUAGCGCCAACGUUCUCAACUAUGACACGCAAAACGCGUGCUCCGUUGAAUGGAGUUUAUCAUG

Variants of: B1
Assay: polymerase ribozyme fitness, log enrichment relative to wild type (log ratio); higher = more active; in vitro selection for triplet polymerase activity
Outline: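 Each subunit of a heterodimeric triplet polymerase ribozyme was mutagenized into a library by PCR, transcribed, and subjected to one round of in vitro selection, run in triplicate. Libraries were annealed with a biotinylated primer, the partner subunit and triplets, incubated frozen at −7 °C, and extended constructs were gel-excised, captured on streptavidin beads and recovered by RT-PCR. Input and output libraries were sequenced on Illumina, keeping genotypes with ≥10 input reads and ≥1 read per output. Fitness is log base 2 of genotype enrichment divided by wild-type enrichment, from inverse-variance-weighted replicate averages.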

Row | Variant | polymerase ribozyme fitness (log ratio)
1 | A60C C85U | -1.01
2 | C32U G68A C85A G94A U139A A147C | ≤ -4.2
3 | C85U U145C | -0.732
4 | C87U A89C U139G | -2.56
5 | G42C G86U U109G G141U | ≤ -4.2
6 | A16C G50A C85U | -3.26
7 | C5G A39G C51U A106G | ≤ -4.2
8 | U56A C105U C116G | -0.192
9 | A29G C43A G48C C93G G126C | ≤ -4.2
10 | C57U C79A | -4.19
11 | C87U A122U | -0.5
12 | C75U G92C | -1.11
13 | G70A C85U | -3.46
14 | U127G G140A | -4.15
15 | A17U A29C A41G G59C C85G | ≤ -4.2
16 | G58C C96U A150G | -0.919
17 | A26U A73U G74U C96A | ≤ -4.2
18 | C57A A60G C75G A91U G136A A137G U144G | ≤ -4.2
19 | U13C A16U G84A U109G | -1.88
20 | C51A A52C C116U C118A A142U | ≤ -4.2
21 | G46A C54A G94C G117A A122U G124A | -3.11

Row | Variant | polymerase ribozyme fitness (log ratio)
22 | A12U U15A A21U U55A C76U C79A A121U | ≤ -4.2
23 | C8U U56G G59A G65A G84U A91G | ≤ -4.2
24 | G58C C85A | -3.71
25 | U53G A97G | -1.44
26 | A17G U134G | -1.76
27 | G46C A52G A137G | -2.44
28 | A29C A30U G42U C93U C105G U139G | ≤ -4.2
29 | A73C G92A U101G | ≤ -4.2
30 | G25C U61A C75G A91G A97U | -4.05
31 | A89U G94U | -1.2
32 | C8U A30U C32U A64G C76A A97G A107U C108U A110G C116A | -4.12
33 | C43U C132U | ≤ -4.2
34 | C38U G42C A52U U61G G133U | ≤ -4.2
35 | A39G A47C C72A C103G C116U G128A | ≤ -4.2
36 | A12U A40C G92A C118G | -3.87
37 | A40C C85A U102G G143A | ≤ -4.2
38 | A16U A17G C85G | -4.18
39 | C125A U146G | -0.126
40 | A16C G86C A110G | ≤ -4.2
41 | C36A C76U | ≤ -4.2
42 | C10A A47G A64G G81U G84U | ≤ -4.2

Row | Variant | polymerase ribozyme fitness (log ratio)
43 | A37U C51U A97C | -2.02
44 | A52C C95U C99U | -3.18
45 | A52C C57G | -1.79
46 | G59A C76G G80C C116G C118G | ≤ -4.2
47 | U6A A29U G81A G92C C114U | ≤ -4.2
48 | U56C G133U | -4.01
49 | A29G C69U | ≤ -4.2
50 | A37U C79U C116A | -4.15
51 | A28U G70U G83C C131U | ≤ -4.2
52 | G48U U56A C87G U90C | -4.07
53 | A122G G143A | -1.03
54 | C69U A98U | -1.15
55 | C10G C38U G50A U90A U127C G128U U145A | ≤ -4.2
56 | C93A A107G | ≤ -4.2
57 | C5U G46A A52G C85U A107U C118A A137U | ≤ -4.2
58 | A40U G50C C57U U82A | -2.79
59 | A47C U61A | -3.21
60 | A40U U56A C75G | -3.97
61 | C93A A115C | -3.22
62 | U15G A22G U56G C96U A121U | -0.722
63 | A16C A17G C76G C96A A107G | ≤ -4.2

Row | Variant | polymerase ribozyme fitness (log ratio)
64 | C32U G74A C93U | -0.21
65 | C87G C99U | ≤ -4.2
66 | U55A C57U G81A G84A | -0.555
67 | C69G C96U C103A | -3.44
68 | U101G G133U | -2.8
69 | A29U G50C A52C A64C U77C G92C G94A C95A A115C U139G | ≤ -4.2
70 | G50C A98U U101A | ≤ -4.2
71 | A28G A106C G133U A142C | ≤ -4.2
72 | G42C A89G G92A G126U G133A | ≤ -4.2
73 | A12C C35U A49C A64U C95U C123U | ≤ -4.2
74 | A29G A60C A89G A110U G143A | ≤ -4.2
75 | A24U G88C U139C U144C | ≤ -4.2
76 | C93U A119G C123U U135G | -4.18
77 | C85U G88A U151G | ≤ -4.2
78 | A29U G59U C93U | ≤ -4.2
79 | C10A C54U G67C C85A A107U | ≤ -4.2
80 | G50A U56A G88C A106G | ≤ -4.2
81 | G11A C96U | -1.9
82 | C79U C85G A138G | ≤ -4.2
83 | A60C U101G | -1.58
84 | A73C A142C | ≤ -4.2
